Like-named read-outs stand apart in the source and are kept apart here.
Legend:
TSHR260-AP (human) [1] = test: TSHR260-AP bridge ELISA (full length TSHR on wells, TSHR260-AP in solution); IgG 250 µg/mL diluted in assay buffer
TSHR260-AP (human) [2] = test: TSHR260-AP bridge ELISA (full length TSHR on wells, TSHR260-AP in solution); IgG 0.05 µg/mL diluted in HBD serum
TSHR260-AP (human) [3] = test: TSHR260-AP bridge ELISA (full length TSHR on wells, TSHR260-AP in solution); IgG 10 µg/mL diluted in assay buffer
[4] = target: TSHR260-alkaline phosphatase (TSHR260-AP) (human) (UniProt P05187); test: TSHR260-AP bridge ELISA, full length TSHR on wells; 250 µg/mL, diluted in assay buffer
TSHR260-AP (human) [5] = test: TSHR260-AP bridge ELISA (full length TSHR on wells, TSHR260-AP in solution); IgG 1 µg/mL diluted in HBD serum
[6] = target: TSHR260-alkaline phosphatase (TSHR260-AP) (human) (UniProt P05187); test: TSHR260-AP bridge ELISA, full length TSHR on wells; 250 µg/mL, diluted in HBD
[7] = target: TSHR260-alkaline phosphatase (TSHR260-AP) (human) (UniProt P05187); test: TSHR260-AP bridge ELISA, full length TSHR on wells; 1 µg/mL, diluted in assay buffer
[8] = target: TSHR260-alkaline phosphatase (TSHR260-AP) (human) (UniProt P05187); test: TSHR260-AP bridge ELISA, full length TSHR on wells; 10 µg/mL, diluted in HBD
[9] = target: human TSHR (thyroid stimulating hormone receptor) expressed in transfected CHO cells (human) (UniProt P16473); test: cell-based or functional assay
[10] = target: TSHR260-alkaline phosphatase (TSHR260-AP) (human) (UniProt P05187); test: TSHR260-AP bridge ELISA, full length TSHR on wells; 0.5 µg/mL, diluted in assay buffer
TSHR260-AP (human) [11] = test: TSHR260-AP bridge ELISA (full length TSHR on wells, TSHR260-AP in solution); IgG 10 µg/mL diluted in HBD serum
TSHR260-AP (human) [12] = test: TSHR260-AP bridge ELISA (full length TSHR on wells, TSHR260-AP in solution); IgG 0.1 µg/mL diluted in HBD serum
[13] = target: human TSHR expressed in CHO cells (human) (UniProt P16473); test: cell-based or functional assay
[14] = target: human TSH receptor (wild type), expressed on transfected CHO cells (human) (UniProt P16473); test: cell-based or functional assay
[15] = target: human TSH receptor (TSHR), wild type, expressed in CHO cells (human) (UniProt P16473); test: cell-based or functional assay
[16] = target: human TSH receptor (full length, wild type) expressed on CHO cells (human) (UniProt P16473); test: cell-based or functional assay
[17] = target: human TSH receptor (full length, wild type) expressed in CHO cells (human) (UniProt P16473); test: cell-based or functional assay
[18] = target: human TSHR (thyroid stimulating hormone receptor) expressed in transfected CHO cells (human) (UniProt P16473); test: cell-based or functional assay; remark: listed apart in the source
[19] = target: human TSHR (wild type, full length) expressed in CHO cells (human) (UniProt P16473); test: cell-based or functional assay
[20] = target: TSHR260-alkaline phosphatase (TSHR260-AP) (human) (UniProt P05187); test: TSHR260-AP bridge ELISA, full length TSHR on wells; 0.1 µg/mL, diluted in assay buffer

With 5B3 IgG (antibody) the Mean absorbance at 405 nm (absorbance at 405 nm) (TSHR260-AP (human) [1]) was 0.018, the Mean absorbance at 405 nm (absorbance at 405 nm) (TSHR260-AP (human) [2]) was -0.006 and the Mean absorbance at 405 nm (absorbance at 405 nm) (TSHR260-AP (human) [3]) was -0.014. It also gave a Mean absorbance at 405 nm (absorbance at 405 nm) [4] of 0.018, a Mean absorbance at 405 nm (absorbance at 405 nm) (TSHR260-AP (human) [5]) of 0.049 and a Mean absorbance at 405 nm (absorbance at 405 nm) [6] of 0.012. For the same substance, the Mean absorbance at 405 nm (absorbance at 405 nm) [7] was -0.004, the Mean absorbance at 405 nm (absorbance at 405 nm) [8] was -0.006 and the Cyclic AMP concentration; 3 ng/mL M22 IgG + 10 µg/mL 5B3 IgG [9] was 21.6 pmol/mL. For the same substance, the Cyclic AMP concentration; 3 ng/mL M22 IgG + 100 µg/mL 5B3 IgG [9] was 28.1 pmol/mL, the Cyclic AMP concentration; 100 µg/mL 5B3 IgG [9] was 1.1 pmol/mL and the Mean absorbance at 405 nm (absorbance at 405 nm) [10] was -0.006. It also gave a Mean absorbance at 405 nm (absorbance at 405 nm) (TSHR260-AP (human) [11]) of -0.006, a Mean absorbance at 405 nm (absorbance at 405 nm) (TSHR260-AP (human) [12]) of -0.002 and a % Inhibition; 3 ng/mL pTSH + 10 µg/mL 5B3 IgG [13] of 7%. The % Inhibition; 3 ng/mL pTSH + 100 µg/mL 5B3 IgG [13] was 7%, the % Inhibition; 5B3 IgG 10 µg/mL + 3 ng/mL pTSH [13] was 0% and the % Inhibition; 5B3 IgG 100 µg/mL + 3 ng/mL pTSH [13] was 0%. The % Inhibition (constitutive activity); 0.01 µg/mL 5B3 IgG [14] was 0%, the % Inhibition (constitutive activity); 0.1 µg/mL 5B3 IgG [14] was 0% and the % Inhibition (constitutive activity); 0.2 µg/mL 5B3 IgG [14] was 8.2%. The % Inhibition (constitutive activity); 1 µg/mL 5B3 IgG [14] was 6.3%, the % Inhibition (constitutive activity); 2 µg/mL 5B3 IgG [14] was 12.9% and the % Inhibition; 5B3 IgG 0.1 µg/mL + T11 [14] was 29.8%. For the same substance, the % Inhibition; 5B3 IgG 1 µg/mL + T11 [14] was 21.4%, the % Inhibition; 5B3 IgG 10 µg/mL + T11 [14] was 25.4% and the % Inhibition; 5B3 IgG 100 µg/mL + T11 [14] was 27%. It also gave a % Inhibition; pTSH 3 ng/mL + 10 µg/mL 5B3 [14] of 0%, a % Inhibition; pTSH 3 ng/mL + 100 µg/mL 5B3 [14] of 0.5% and a Cyclic AMP concentration; 100 µg/mL 5B3 alone [14] of 0.9 pmol/mL. For the same substance, the Cyclic AMP concentration; 5B3 IgG 0.1 µg/mL + T11 [14] was 17.7 pmol/mL, the Cyclic AMP concentration; 5B3 IgG 1 µg/mL + T11 [14] was 19.8 pmol/mL and the Cyclic AMP concentration; 5B3 IgG 10 µg/mL + T11 [14] was 18.8 pmol/mL. The Cyclic AMP concentration; 5B3 IgG 100 µg/mL + T11 [14] was 18.4 pmol/mL, the Cyclic AMP concentration; 5B3 IgG 100 µg/mL alone [14] was 1 pmol/mL and the Cyclic AMP concentration; pTSH 3 ng/mL + 10 µg/mL 5B3 [14] was 66.9 pmol/mL. It also gave a Cyclic AMP concentration; pTSH 3 ng/mL + 100 µg/mL 5B3 [14] of 63.9 pmol/mL, a Cyclic AMP production (constitutive activity); 0.01 µg/mL 5B3 IgG [14] of 58.2 pmol/mL and a Cyclic AMP production (constitutive activity); 0.1 µg/mL 5B3 IgG [14] of 58.8 pmol/mL. It also gave a Cyclic AMP production (constitutive activity); 0.2 µg/mL 5B3 IgG [14] of 53.3 pmol/mL, a Cyclic AMP production (constitutive activity); 1 µg/mL 5B3 IgG [14] of 54.4 pmol/mL and a Cyclic AMP production (constitutive activity); 2 µg/mL 5B3 IgG [14] of 50.6 pmol/mL. It also gave a Cyclic AMP concentration in hypotonic medium; 1 µg/mL 5B3 IgG + 3 ng/mL pTSH [15] of 71.9 pmol/mL, a Cyclic AMP concentration in hypotonic medium; 3 µg/mL 5B3 IgG + 3 ng/mL pTSH [15] of 75.7 pmol/mL and a Cyclic AMP concentration in hypotonic medium; 3 µg/mL 5B3 IgG alone [15] of 1.9 pmol/mL. For the same substance, the Cyclic AMP concentration in isotonic medium; 1 µg/mL 5B3 IgG + 3 ng/mL pTSH [15] was 39.5 pmol/mL, the Cyclic AMP concentration in isotonic medium; 3 µg/mL 5B3 IgG + 3 ng/mL pTSH [15] was 42.5 pmol/mL and the Cyclic AMP concentration in isotonic medium; 3 µg/mL 5B3 IgG alone [15] was 0.5 pmol/mL. The % Inhibition of M22 IgG (3 ng/mL) stimulation; 100 µg/ml 5B3 IgG [16] was 0%, the % Inhibition of pTSH (1 ng/mL) stimulation; 10 µg/mL 5B3 IgG [16] was 0% and the % Inhibition of pTSH (1 ng/mL) stimulation; 100 µg/mL 5B3 IgG [16] was 0%. It also gave a Cyclic AMP concentration in hypotonic medium; 100 µg/mL 5B3 IgG alone [16] of 2.2 pmol/mL, a Cyclic AMP concentration in isotonic medium; 100 µg/mL 5B3 IgG alone [16] of 1.4 pmol/mL and a Cyclic AMP concentration; 1 ng/mL pTSH + 10 µg/mL 5B3 IgG [16] of 80.7 pmol/mL. The Cyclic AMP concentration; 1 ng/mL pTSH + 100 µg/mL 5B3 IgG [16] was 79.3 pmol/mL, the Cyclic AMP concentration; 3 ng/mL M22 IgG + 100 µg/ml 5B3 IgG [16] was 41.8 pmol/mL and the Cyclic AMP concentration; 100 µg/mL 5B3 IgG alone (no TSH) [16] was 2.6 pmol/mL. For the same substance, the Cyclic AMP concentration; 5B3 IgG 100 µg/mL alone [16] was 1.2 pmol/mL, the % Inhibition; T1 serum + 100 µg/mL 5B3 IgG [17] was 4.9% and the % Inhibition; T2 serum + 100 µg/mL 5B3 IgG [17] was 0%. It also gave a % Inhibition; T3 serum + 100 µg/mL 5B3 IgG [17] of 14.4%, a Cyclic AMP concentration; 100 µg/mL 5B3 IgG alone [17] of 1 pmol/mL and a Cyclic AMP concentration; HBD + 100 µg/mL 5B3 IgG [17] of 2 pmol/mL. It also gave a Cyclic AMP concentration; T1 serum + 100 µg/mL 5B3 IgG [17] of 94.9 pmol/mL, a Cyclic AMP concentration; T2 serum + 100 µg/mL 5B3 IgG [17] of 62 pmol/mL and a Cyclic AMP concentration; T3 serum + 100 µg/mL 5B3 IgG [17] of 54.2 pmol/mL. The % Inhibition; 3 ng/mL M22 IgG + 10 µg/mL 5B3 IgG [18] was 0%, the % Inhibition; 3 ng/mL M22 IgG + 100 µg/mL 5B3 IgG [18] was 0% and the Cyclic AMP concentration; 3 ng/mL M22 IgG + 10 µg/mL 5B3 IgG [18] was 44.7 pmol/mL. The Cyclic AMP concentration; 3 ng/mL M22 IgG + 100 µg/mL 5B3 IgG [18] was 51.3 pmol/mL, the Cyclic AMP concentration; 100 µg/mL 5B3 IgG [18] was 2.3 pmol/mL and the % Inhibition of T5 serum stimulation; 0.1 µg/mL 5B3 IgG [19] was 7%. The % Inhibition of T5 serum stimulation; 1 µg/mL 5B3 IgG [19] was 4.1%, the % Inhibition of T5 serum stimulation; 10 µg/mL 5B3 IgG [19] was 3.1% and the % Inhibition of T5 serum stimulation; 100 µg/mL 5B3 IgG [19] was 12.5%. It also gave a Cyclic AMP concentration; 0.1 µg/mL 5B3 IgG + T5 [19] of 59.4 pmol/mL, a Cyclic AMP concentration; 1 µg/mL 5B3 IgG + T5 [19] of 61.3 pmol/mL and a Cyclic AMP concentration; 10 µg/mL 5B3 IgG + T5 [19] of 61.9 pmol/mL. For the same substance, the Cyclic AMP concentration; 100 µg/mL 5B3 IgG + T5 [19] was 55.9 pmol/mL, the Cyclic AMP concentration; 100 µg/mL 5B3 IgG alone [19] was 1.1 pmol/mL and the Mean absorbance at 405 nm (absorbance at 405 nm) [20] was -0.013.

— patent US20110300138A1 (published 2011)
